Measurements: PMC13507078, “The BRCT domain enhances DNA binding and catalytic efficiency of fungal PARPs”

Tests used:
Af-PARP1 S241Q [1] = target: T1, Af-PARP1 S241Q (Aspergillus fumigatus, UniProt B0Y3N8 1-23+35-688, S252Q;internal_change); assay: EMSA; EMSA: 50 mM HEPES pH 8, 100 mM NaCl, 10% glycerol, 10 mM DTT, 45 min at 4 °C, 7% native PAGE 0.5x TBE; plasmid EMSA: 20 mM Tris-HCl pH 8, 30 mM NaCl, 1 mM EDTA, 1 mM DTT; CD: 20 mM HEPES pH 8, 100 mM NaCl, 0.5 mM TCEP, 2% glycerol; settings: protein: recombinant; tags: His; described as blunt duplex; printed strands not exactly complementary
Af-PARP1 K52/60A = Af-PARP1 K52/60A (Aspergillus fumigatus, UniProt B0Y3N8 1-23+35-688, K63A;K71A;internal_change); assay: as above; settings: protein: recombinant; tags: His; dumbbell of two hairpins, nick
Af-PARP1 K56A = Af-PARP1 K56A (Aspergillus fumigatus, UniProt B0Y3N8 1-23+35-688, K67A;internal_change); assay: as above; settings: protein: recombinant; tags: His; dumbbell of two hairpins, nick
Af-PARP1 Q22A = Af-PARP1 Q22A (Aspergillus fumigatus, UniProt B0Y3N8 1-23+35-688, Q22A;internal_change); assay: as above; settings: protein: recombinant; tags: His; dumbbell of two hairpins, nick
Af-PARP1 E53A = Af-PARP1 E53A (Aspergillus fumigatus, UniProt B0Y3N8 1-23+35-688, E64A;internal_change); assay: as above; settings: protein: recombinant; tags: His; dumbbell of two hairpins, nick
Af-PARP1 K60A = Af-PARP1 K60A (Aspergillus fumigatus, UniProt B0Y3N8 1-23+35-688, K71A;internal_change); assay: as above; settings: protein: recombinant; tags: His; dumbbell of two hairpins, nick
Af-PARP1 K52A = Af-PARP1 K52A (Aspergillus fumigatus, UniProt B0Y3N8 1-23+35-688, K63A;internal_change); assay: as above; settings: protein: recombinant; tags: His; dumbbell of two hairpins, nick
Af-PARP1 S14A = Af-PARP1 S14A (Aspergillus fumigatus, UniProt B0Y3N8 1-23+35-688, S14A;internal_change); assay: as above; settings: protein: recombinant; tags: His; dumbbell of two hairpins, nick
Af-PARP1 S241Q [2] = target: T1, Af-PARP1 S241Q; assay: EMSA; mutation did not restore binding; EMSA: 50 mM HEPES pH 8, 100 mM NaCl, 10% glycerol, 10 mM DTT, 45 min at 4 °C, 7% native PAGE 0.5x TBE; plasmid EMSA: 20 mM Tris-HCl pH 8, 30 mM NaCl, 1 mM EDTA, 1 mM DTT; CD: 20 mM HEPES pH 8, 100 mM NaCl, 0.5 mM TCEP, 2% glycerol; settings: protein: recombinant; tags: His; hairpin, blunt end

B1: DNA-16/17 (5'P duplex) (dsDNA)
DNA 1: GACGACCCGGACACA
DNA 2: TGTGCTCCGGGTCGTC
modifications: 5'-phosphate on DNA-16
binding result (Af-PARP1 S241Q [1]): binds

B2: DNA-1 (5'P nick) (structured_DNA)
DNA: CGGTCGATCGTAAGATCGACCGGCGCTGGAGCTTGCTCCAGCGC
modifications: 5'-phosphate
binding result (Af-PARP1 K52/60A): binds
binding result (Af-PARP1 K56A): binds
binding result (Af-PARP1 Q22A): binds
binding result (Af-PARP1 E53A): binds
binding result (Af-PARP1 K60A): binds
binding result (Af-PARP1 K52A): binds
binding result (Af-PARP1 S14A): binds

B3: DNA-5 (5'P blunt) (structured_DNA)
DNA: GGAAGTTCTTTTGAACTTCC
modifications: 5'-phosphate
binding result (Af-PARP1 S241Q [2]): no binding
